B1: tFA8-14: truncated (6S)-FA specific RNA aptamer, SEQ ID NO: 25 (nucleic acid)
chain: CCGCGCAAGUGCAUUAACGGUGACACCGAAAGCUGGAAAGCCUGACAUCGAACGCAAAAGGCUGCGUGG
modifications: unmodified RNA
B2: miRNA switch: folinic acid-responsive miRNA switch with aptamer FA8-3 that targets GFP, SEQ ID NO: 57 (nucleic acid)
chain: AATAACCGGTGCGATCGCGAACGGGTCCTCACTACCCCTCGAAATCACGAGGGAGACGAGATAAGAGCGACGGCGGAGCGAGCACAAGCTGGAGTACAACTATAGTGAAGCCACAGATGTATAGTTGTACTCCAGCTTGTGCCCGCCTTGCCAACCATAACGTCTGGTCACGACCGTAGTAAGGGCCCGTTTTTAATTAAATCGATTATT
modifications: Synthetic nucleic acid
B3: tFA8-3: truncated (6R)-FA specific RNA aptamer, SEQ ID NO: 19 (nucleic acid)
chain: UUUGCCAACGUCUGGUCACGACCGUAGUACACUACCCCUCGAAAUCACGAGGGAGACGAGAUAGGCGGA
modifications: unmodified RNA

Key:
[1] = SPR screen of truncated or mutated aptamers for folinic acid binding (qualitative)
Description: Full length sequences were amplified off of sequencing PCR products using primers N70-fwd-short and Biacore-N70-rev to append a poly(A) tail. Truncated or mutated sequences were synthesized by Integrated DNA Technologies or the Protein and Nucleic Acid facility (Stanford, Calif.).
(§1) Surface plasmon resonance characterization of aptamer binding properties. Nucleic acid aptamer preparation. RNA aptamers were prepared by PCR amplification of DNA template sequences (Table 4, Integrated DNA Technologies, Coralville, Iowa) using forward and reverse primers Biacore-fwd and Biacore-rev, respectively, followed by transcription of the PCR product using the MEGAshortscript T7 transcription kit (Life Technologies) and purification of the transcription product using the RNA Clean & Concentrator kit (Zymo Research, Irvine, Calif.), according to the manufacturers' instructions. Aptamers were resuspended in selection buffer, denatured at 65° C. for 5 min, and cooled to room temperature directly before use.
Sensor chip surface generation. Experiments were performed on a Biacore X100 instrument (GE Healthcare) at 25° C. A CM5 sensor chip (GE Healthcare) was equilibrated with HBS-N buffer. The DNA linker strand (5′-AmMC6-[…]) (Integrated DNA Technologies) (SEQ ID NO:133), with an amino modified 6-carbon linker on the 5′ end, was immobilized to the chip surface. […]

[2] = Surface plasmon resonance aptamer binding assay, (6S)-folinic acid; conditions: SPR, 25° C., selection buffer pH 7.4, 5 mM MgCl2
Description: as §1
(§2) Sensor chip surface generation. Experiments were performed on a Biacore X100 instrument (GE Healthcare) at 25° C. A CM5 sensor chip (GE Healthcare) was equilibrated with HBS-N buffer. The DNA linker strand (5′-AmMC6-[…]) (Integrated DNA Technologies) (SEQ ID NO:133), with an amino modified 6-carbon linker on the 5′ end, was immobilized to the chip surface. The carboxymethylated dextran surface of the CM5 chip was activated for 7 min at a flow rate of 10 μL/min using a 1:1 volume ratio of 0.4 M 1-ethyl-3-(3-dimethylaminopropyl) carbodiimide (GE Healthcare) and 0.1 M N-hydroxysuccinimide (GE Healthcare). A molar ratio of 1:30 of DNA strand to hexadecyltrimethylammonium bromide (Sigma-Aldrich, St. Louis, Mo.) was diluted in 10 mM HEPES buffer (Sigma-Aldrich) to a final concentration of 20 μM and 0.6 mM, respectively, and injected over the activated surface for 10 min at a flow rate of 5 μL/min. Excess activated groups were blocked by an injection of 1 M ethanolamine (GE Healthcare), pH 8.5, for 7 min at a flow rate of 10 μL/min. The immobilization reaction was performed sequentially on both flow cells (FC1, FC2) and yielded approximately 4,000 RU of the DNA strand.
(§3) Aptamer binding assay. The Biacore X100 instrument was primed three times with running buffer prior to all binding assays. For each assay, three startup cycles were performed to stabilize the sensorgram baseline. For each startup cycle, the aptamer (˜40-70 ng/μL, ˜3 μM) was captured onto the sample flow cell (FC2) for 40 s at a flow rate of 5 μL/min. 25 mM NaOH (GE Healthcare) was injected for 30 s at a flow rate of 30 μL/min over both flow cells to regenerate the sensor surface. A dilution series of (6R)- or (6S)-folinic acid (Schircks Laboratories, Jona, Switzerland) was prepared in selection buffer and filtered through a 0.2 μm membrane (Pall Corporation, Port Washington, N.Y.). For each concentration sample, the aptamer was captured onto the sample flow cell (FC2) for 40 s at a flow rate of 5 μL/min, the folinic acid solution was injected over both flow cells at a flow rate of 30 μL/min to monitor target association, and selection buffer was injected over both flow cells at a flow rate of 30 μL/min to monitor target dissociation. Association and dissociation phase lengths used were chosen based on time needed to reach equilibrium. Aptamer and folinic acid were removed from the sensor surface by injecting 25 mM NaOH for 30 s at a flow rate of 30 μL/min over both flow cells.
(§4) Data processing and analysis were performed using Biacore X100 Evaluation Software version 2.0 (GE Healthcare). A double-referencing method was performed to process all datasets. Data from the sample flow cell (FC2) were referenced first by subtracting data from the reference flow cell (FC1) to correct for bulk refractive index changes, nonspecific binding, injection noise, matrix effects, and baseline drift. Reference-subtracted data (FC2−FC1) were double-referenced with a blank injection of running buffer to account for any systematic drift over the course of the injection. Double-referenced data were fit to a 1:1 binding model for kinetic analysis or steady-state affinity model for thermodynamic analysis. […]

[3] = Surface plasmon resonance aptamer binding assay, (6R)-folinic acid; conditions: for Selectivity: between (6R)- and (6S)-folinic acid diastereomers
Description: as §1, §2, §3, §4

GFP expression = assay: miRNA switch silencing activity on GFP in mammalian cells; type: cell-based; conditions: folinic acid
Description: Ligand-responsive, microRNA (miRNA) switches have been developed that modulate Drosha processing. These switches integrate an aptamer into the basal segments of a miRNA. Internal loop size contained within the basal segments affects Drosha processing and therefore the levels of miRNA-mediated gene silencing. By integrating an aptamer within the basal segments, unbound aptamer can remain relatively unstructured, while ligand binding can sequester nucleotides involved in binding and inhibit Drosha processing.
Aptamer integration into this switch platform requires two integration stems; therefore, aptamer FA8-3 was chosen. Separate studies on using this aptamer in a transmitter-based switch observe that an internal loop within the aptamer could be expanded while retaining ligand binding ability. This loop was expanded to the previously identified optimal loop size and integrated into the miRNA switch that targets GFP. A single copy of the miRNA switch enables up to 2.1-fold change in GFP expression (FIG. 26b); including two copies yields up to 2.6-fold change (FIG. 26c). Additional copies of the switch would be expected to further increase the achievable activation ratio, as would specific use of (6R)-folinic acid.

[4] = SPR equilibrium binding to folate derivative (6R)-tetrahydrobiopterin; conditions: N.D. = non-detectable levels of binding, read-out: KD, (6R)-Tetrahydrobiopterin (THB)
[5] = SPR binding to (6R,S)-5-formyl-5,6,7,8-tetrahydropteroic acid; conditions: ligand is mixture of (6R) and (6S) diastereomers
[6] = SPR binding to (6R,S)-5-methyl-5,6,7,8-tetrahydrofolic acid; conditions: ligand is mixture of (6R) and (6S) diastereomers, read-out: KD, (6R,S)-5-methyl-THF
[7] = SPR, 25° C., selection buffer pH 7.4, 5 mM MgCl2
[8] = SPR, 1:1 binding model, 25° C., selection buffer pH 7.4, 5 mM MgCl2

Molecule	folinic acid binding (qualitative) [1]	ka, (6S)-Folinic Acid ([2]; 1:1 binding model) [M⁻¹ s⁻¹]	kd, (6S)-Folinic Acid ([2]; 1:1 binding model) [s⁻¹]	Kd [2] [µM]	Kd [3, 7] [µM]	Selectivity [3]	change in GFP expression (GFP expression; single copy of the miRNA switch)	change in GFP expression (GFP expression; two copies of the miRNA switch)	Kd [4] [µM]	ka, (6R,S)-5-formyl-THPteroic Acid [5] [M⁻¹ s⁻¹]	kd, (6R,S)-5-formyl-THPteroic Acid [5] [s⁻¹]	Kd ([5]; read-out: KD, (6R,S)-5-formyl-THPteroic Acid) [µM]	ka, (6R)-Folinic Acid [3, 8] [M⁻¹ s⁻¹]	kd, (6R)-Folinic Acid [3, 8] [s⁻¹]	Kd [6] [µM]
B1	maintains binding	89200	0.0128	0.144	10200	71,100	–	–	–	–	–	–	–	–	–
B2	–	–	–	–	–	–	up to 2.1 fold	up to 2.6 fold	–	–	–	–	–	–	–
B3	–	–	–	28.6	0.0473	606	–	–	1.6	305000	0.0292	0.0957	459000	0.0217	0.158

Source: patent publication US10450573B2, “Compositions and methods for regulation of gene expression with, and detection of, folinic acid and folates” (The Board of Trustees of the Leland Stanford Junior …, priority 2014, dated 2019)
